Data published in CN107773755A.

Assays:
抗体BA03-A [1] = assay: binding ELISA on coated BA03-A, relative activity vs reference; formulations F1-F11 at T0
抗体BA03-A [2] = assay: binding ELISA on coated BA03-A, relative activity vs reference; formulations after 4 weeks at 40 C
抗体BA03-A [3] = assay: binding ELISA on coated BA03-A, relative activity vs reference; formulations after 8 weeks at 2-8 C
抗体BA03-A [4] = assay: binding ELISA on coated BA03-A, relative activity vs reference; formulation F3 after 8 weeks at 40 C
抗体BA03-A [5] = assay: binding ELISA on coated BA03-A, relative activity vs reference; formulation F7 after 8 weeks at 40 C
抗体BA03-A [6] = assay: binding ELISA on coated BA03-A, relative activity vs reference; formulation F8 after 8 weeks at 40 C

生物活性 (Binding elisa, % relative to the reference) (抗体BA03-A [1]): 97.1 to 105%
生物活性 (Binding elisa, % relative to the reference) (抗体BA03-A [2]): 47.3 to 102%
结合活性 (Binding elisa, % relative to the reference) (抗体BA03-A [3]): 93.3 to 111%
活性 (Binding elisa, % relative to the reference) (抗体BA03-A [4]): 89.7%
活性 (Binding elisa, % relative to the reference) (抗体BA03-A [5]): 55.2%
活性 (Binding elisa, % relative to the reference) (抗体BA03-A [6]): 91.7%
B1: 抗体BA03 (重组人源化抗表皮生长因子受体单克隆抗体) (antibody, V domains shown)
VH: QVQLQESGPGLVKPSETLSLTCTVSGFSLSNYDVHWVRQAPGKGLEWLGVIWSGGNTDYNTPFTSRLTISVDTSKNQFSLKLSSVTAADTAVYYCARALDYYDYEFAYWGQGTLVTVSS
VL: EIVLTQSPDFQSVTPKEKVTITCRASQSIGTNIHWYQQKPDQSPKLLIKYASESISGIPSRFSGSGSGTDFTLTINSLEAEDAATYYCQQNNEWPTSFGQGTKLEIK
